Two molecules from publication PMC7299284, “Studies in humanized mice and convalescent humans yield a SARS-CoV-2 antibody cocktail” (Science (New York, N.y.), 2020) can be followed below.

For this assay, the target named is T1, SARS-CoV-2 spike RBD (as in the cryo-EM complex with REGN10933 and REGN10987 Fabs) (SARS-CoV-2, UniProt P0DTC2).
T1 construct: also called SARS-CoV-2 RBD
Description: cryo-EM structure; single-particle cryo-EM of SARS-CoV-2 spike RBD bound to Fab fragments of REGN10933 and REGN10987, nominal resolution 3.9 Å. The following applies: both partners purified.

B1: Fab fragment of REGN10987 (Fab, V domains shown)
VH: QVQLVESGGGVVQPGRSLRLSCAASGFTFSNYAMYWVRQAPGKGLEWVAVISYDGSNKYYADSVKGRFTISRDNSKNTLYLQMNSLRTEDTAVYYCASGSDYGDYLLVYWGQGTLVTVSS
VL: QSALTQPASVSGSPGQSITISCTGTSSDVGGYNYVSWYQQHPGKAPKLMIYDVSKRPSGVSNRFSGSKSGNTASLTISGLQSEDEADYYCNSLTSISTWVFGGGTKLTVL
notes: also called REGN10987 Fab
B1: the binding result was “binds”.

B2: Fab fragment of REGN10933 (Fab, V domains shown)
VH: QVQLVESGGGLVKPGGSLRLSCAASGFTFSDYYMSWIRQAPGKGLEWVSYITYSGSTIYYADSVKGRFTISRDNAKSSLYLQMNSLRAEDTAVYYCARDRGTTMVPFDYWGQGTLVTVSS
VL: DIQMTQSPSSLSASVGDRVTITCQASQDITNYLNWYQQKPGKAPKLLIYAASNLETGVPSRFSGSGSGTDFTFTISGLQPEDIATYYCQQYDNLPLTFGGGTKVEIK
notes: also called REGN10933 Fab
With B2, the binding result is recorded as “binds”.
